Assay results as given in patent EP4810515A1 (Shanghai Haiju Biological Technology Co., Ltd., dated 2026).

T1: human GDF15 recombinant protein (ACRO, GD5-H5149) (human, UniProt Q99988 197-308)
T1 sequence (looked up): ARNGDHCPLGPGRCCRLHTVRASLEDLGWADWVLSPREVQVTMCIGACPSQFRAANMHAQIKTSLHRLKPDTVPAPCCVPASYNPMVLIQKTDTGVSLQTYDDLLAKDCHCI

T2: mouse GDF15 recombinant protein (Kactus, GDF-MM215) (mouse, UniProt Q9Z0J7 189-303, limits assumed)
T2 construct: also called mGDF-15.hFc; murine GDF15; not shown: human Fc (hFc)
T2 sequence (looked up): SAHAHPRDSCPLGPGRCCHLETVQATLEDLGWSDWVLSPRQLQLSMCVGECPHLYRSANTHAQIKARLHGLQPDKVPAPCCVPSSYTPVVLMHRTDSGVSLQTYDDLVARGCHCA

T3: cynomolgus monkey GDF15 recombinant protein (Kactus, GDF-CM215) (cynomolgus monkey, UniProt G7PWZ3 197-308, limits assumed)
T3 construct: also called cynoGDF-15.hFc; cynoGDF15; not shown: human Fc (hFc)
T3 sequence (looked up): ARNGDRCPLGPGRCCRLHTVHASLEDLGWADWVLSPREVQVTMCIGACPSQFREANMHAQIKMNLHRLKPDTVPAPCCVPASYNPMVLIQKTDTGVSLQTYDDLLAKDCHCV


Legend:
[1] = molecular target: T1, human GDF15 recombinant protein (ACRO, …); assay: cell-based or functional assay
[2] = molecular target: T1, human GDF15 recombinant protein (ACRO, …); assay: ELISA, coated hGDF-15.His
[3] = molecular target: T2, mouse GDF15 recombinant protein …; assay: ELISA, coated mGDF-15.hFc
[4] = molecular target: T1, human GDF15 recombinant protein (ACRO, …); assay: cell-based or functional assay; remark: listed apart in the source
[5] = molecular target: T3, cynomolgus monkey GDF15 recombinant …; assay: ELISA, coated cynoGDF-15.hFc
[6] = molecular target: T2, mouse GDF15 recombinant protein …; assay: ELISA, coated mGDF-15.hFc 2 ug/mL

Binder	IC50, reporter gene cell strain (mGFRAL) [1]	EC50 [2]	EC50 [3]	IC50, luciferase reporter gene cell strain (mGFRAL/RET HEK293) with hGDF15 [4]	EC50 [5]	other results
G2-CH2-LP1-hIgG1 (LALAGA, -K) (antibody, V domains shown) VH: QVTLKESGPGILQPSQTLSLTCSFSGFSLTISGMGVSWIRQPSGKGLEWLAHIYWDDDKRYNPSLKSRLTISKDTSSNQVFLEITSVDTADTATYYCVRAGWDFFDYWGQGTTLTVSS VL: DIVMTQSQKFMSTSVGDRVSVTCKASQNVGTNVAWYQQKPGQSPKGLIYSASYRYSGVPDRFTGSGSGTDFTLTISNVQSEDLAEYFCQQYNAYPWTFGGGTKLEIKR	0.088 µg/mL	–	–	–	–	–
G2-CH2-LP2-hIgG1 (LALAGA, -K) (antibody, V domains shown) VH: QVTLKESGPGILQPSQTLSLTCSFSGFSLTISGMGVSWIRQPSGKGLEWLAHIYWDDDKRYNPSLKSRLTISKDTSSNQVFLEITSVDTADTATYYCVRAGWDFFDYWGQGTTLTVSS VL: DIVMTQSQKFMSTSVGDRVSVTCKASQNVGTNVAWYQQKPGQSPKGLIYSASYRYSGVPDRFTGSGSGTDFTLTISNVQSEDLAEYFCQQYESYPWTFGGGTKLEIKR	0.091 µg/mL	–	–	–	–	–
G2-CH2-LP3-hIgG1 (LALAGA, -K) (antibody, V domains shown) VH: QVTLKESGPGILQPSQTLSLTCSFSGFSLTISGMGVSWIRQPSGKGLEWLAHIYWDDDKRYNPSLKSRLTISKDTSSNQVFLEITSVDTADTATYYCVRAGWDFFDYWGQGTTLTVSS VL: DIVMTQSQKFMSTSVGDRVSVTCKASQNVGTNVAWYQQKPGQSPKGLIYSASYRYSGVPDRFTGSGSGTDFTLTISNVQSEDLAEYFCQQYNQYPWTFGGGTKLEIKR	0.093 µg/mL	–	–	–	–	–
G2-CH5-HP1-hIgG1 (LALAGA, -K) (antibody, V domains shown) VH: EVLLQQSGPELVKPGASVKIACKASGYTLTDYNLNWVKQSHGKSLEWIGDLNPYNAGIIYNQKFKGKATLTVDKSSSTAYMELRSLTSEDIAVYYCAREGRGGAWFDSWGQGTLVTVSA VL: DIQMTQSSSSFSVSLGDRVTITCKASEDIYHRLAWYQQKPGNAPRLLISGATSLETGIPSRFSGSGSGKDYALSITSLQTEDVGTYYCQQYWSPPFTFGSGTKLEIKR	0.18 µg/mL	–	–	–	–	–
G2-CH5-HP2-hIgG1 (LALAGA, -K) (antibody, V domains shown) VH: EVLLQQSGPELVKPGASVKIACKASGYTLTDYNLNWVKQSHGKSLEWIGDLNPYNQGIIYNQKFKGKATLTVDKSSSTAYMELRSLTSEDIAVYYCAREGRGGAWFDSWGQGTLVTVSA VL: DIQMTQSSSSFSVSLGDRVTITCKASEDIYHRLAWYQQKPGNAPRLLISGATSLETGIPSRFSGSGSGKDYALSITSLQTEDVGTYYCQQYWSPPFTFGSGTKLEIKR	0.142 µg/mL	–	–	–	–	–
G2-CH8-LP1-hIgG1 (LALAGA, -K) (antibody, V domains shown) VH: QVTLKESGPGILQPSQTLSLTCSFSGFSLSTYGIGVGWIRQPSGKGLEWLAHIWWNDNKYYNTALKSRLTISKDTSNNQVFLKIASVDTADTATYYCARLAYDYVDSWGQGTTLTVSS VL: DIVMTQAAFSNPVTLGTSASISCRSSKSLLHSNAITYLYWYLQKPGQSPQLLIYQMSNLVSGVPDRFSSSGSGTDFTLRISRVEAEDVGVYYCAQNLELPPTFGAGTKLELKR	0.116 µg/mL	–	–	–	–	–
G2-CH8-LP2-hIgG1 (LALAGA, -K) (antibody, V domains shown) VH: QVTLKESGPGILQPSQTLSLTCSFSGFSLSTYGIGVGWIRQPSGKGLEWLAHIWWNDNKYYNTALKSRLTISKDTSNNQVFLKIASVDTADTATYYCARLAYDYVDSWGQGTTLTVSS VL: DIVMTQAAFSNPVTLGTSASISCRSSKSLLHSNQITYLYWYLQKPGQSPQLLIYQMSNLVSGVPDRFSSSGSGTDFTLRISRVEAEDVGVYYCAQNLELPPTFGAGTKLELKR	0.1 µg/mL	–	–	–	–	–
G2-CH8-LP3-hIgG1 (LALAGA, -K) (antibody, V domains shown) VH: QVTLKESGPGILQPSQTLSLTCSFSGFSLSTYGIGVGWIRQPSGKGLEWLAHIWWNDNKYYNTALKSRLTISKDTSNNQVFLKIASVDTADTATYYCARLAYDYVDSWGQGTTLTVSS VL: DIVMTQAAFSNPVTLGTSASISCRSSKSLLHSEGITYLYWYLQKPGQSPQLLIYQMSNLVSGVPDRFSSSGSGTDFTLRISRVEAEDVGVYYCAQNLELPPTFGAGTKLELKR	0.081 µg/mL	–	–	–	–	–
G2-CH7 (antibody, human IgG1, kappa, V domains shown, chimeric: murine variable regions on human IgG1 constant region mutant (LALAGA, -K)) VH: EVQLQQSGPELVKPGASLKISCKASGYSFTGYNMNWVKQSHGKNLEWIGLINPSNGGSSYSQKFKGKATLTVDKSSSTAYMELLSLTSKDSAVYYCAREVRLGNALDYWGQGTSVTVSS VL: DIQMTQSPASLSVSVGETVTITCRASENIYSNLAWYQQKQGKSPQLLVYAATNLGDGAPSRFSGSGSGTQYSLKINSLQSEDFGSYYCQHFWGTPWTFGGGTKLEIKR	–	0.00552 nM	0.12 nM	3.83 nM	0.104 nM	–
G2-CH8 (antibody, human IgG1, kappa, V domains shown, chimeric: murine variable regions on human IgG1 constant region mutant (LALAGA, -K)) VH: QVTLKESGPGILQPSQTLSLTCSFSGFSLSTYGIGVGWIRQPSGKGLEWLAHIWWNDNKYYNTALKSRLTISKDTSNNQVFLKIASVDTADTATYYCARLAYDYVDSWGQGTTLTVSS VL: DIVMTQAAFSNPVTLGTSASISCRSSKSLLHSNGITYLYWYLQKPGQSPQLLIYQMSNLVSGVPDRFSSSGSGTDFTLRISRVEAEDVGVYYCAQNLELPPTFGAGTKLELKR	–	0.00122 nM	0.37 nM	3.05 nM	0.0934 nM	–
G2-CH9 (antibody, human IgG1, kappa, V domains shown, chimeric: murine variable regions on human IgG1 constant region mutant (LALAGA, -K)) VH: EVQLQQSGPELVKPGASMKISCKASGYSFTGYNMNWVKQSQGKNLEWIGLINPYNGGTIYNQKFKGKATLTVDKSSTTAYMELLSLTSEDSAVYYCAREVRLGNAMDYWGQGTSVTVSS VL: DIQMTQSPASLSVSVGETVTITCRASENIYSNLAWYQQKQGKSPQLLVSAATNLADGVPSRFSGSGSGTQYSLKIISLQSVDFGSYYCQHFWGTPWTFGGGTKLEIKR	–	0.00634 nM	0.11 nM	1.42 nM	0.097 nM	–
G2-CH10 (antibody, human IgG1, kappa, V domains shown, chimeric: murine variable regions on human IgG1 constant region mutant (LALAGA, -K)) VH: not shown VL: DIQMTQTTSSLSASLGDRVTISCRASQDISNYLNWYQQKPDGTVKLLIHSASNLHSGVPSRFSGSGSGTDYSLTISNLEQEDIATYFCQQYNMFPWTFGGGTKLEIKR	–	0.00592 nM	0.25 nM	3.4 nM	0.0841 nM	–
G2-CH17 (antibody, human IgG1, kappa, V domains shown, chimeric: murine variable regions on human IgG1 constant region mutant (LALAGA, -K)) VH: QVTLKESGPGILQPSQTLSLTCSFSGFSLNTSGMGVSWIRQPSGKGLEWLAHIYWDDDKRYNPSLKSRLTISKDTSRNQVFLKITGVDTADTAAYYCARTGWDFFDIWGQGTTLTVSS VL: DIVMTQSQKFMSTSVGDRVSVTCKASQNVGSNVAWYQQKPGQSPKALIYSASYRYSGVPDRFTGSGSGTDFTLTITNVQSEDLAEYFCQQYKSYPLTFGAGTKLELKR	–	0.00393 nM	–	–	0.13 nM	binding result [6]: no binding
